Reference: IntAct's records for PubMed 15047893

B1: Serine/threonine-protein kinase TOUSLED (Arabidopsis thaliana (Mouse-ear cress)), Q39238 (parent)
chain: MSDDMVLHFSSNSSNQSDHSLPDKIAKLEARLTGKTPSSAKPPQQQQQQQQQVSLWSSASAAVKVVTSTPPGLSETSISDSDDENTGDFLIRANTKKRQKVQESNNFSVVDHVEPQEAAYDGRKNDAESKTGLDVSKKKQGRGRASSTGRGRGSKTNNDVTKSQFVVAPVSAASQLDASDQKDFRPDGQLRNGECSLQDEDLKSLRAKIAMLEEELRKSRQDSSEYHHLVRNLENEVKDLKDQEQQGKQKTTKVISDLLISVSKTERQEARTKVRNESLRLGSVGVLRTGTIIAETWEDGQMLKDLNAQLRQLLETKEAIERQRKLLKKRQNGDKNDGTDTESGAQEEDIIPDEVYKSRLTSIKREEEAVLRERERYTLEKGLLMREMKRIRDEDGSRFNHFPVLNSRYALLNLLGKGGFSEVYKAYDLVDHRYVACKLHGLNAQWSEEKKQSYIRHANRECEIHKSLVHHHIVRLWDKFHIDMHTFCTVLEYCSGKDLDAVLKATSNLPEKEARIIIVQIVQGLVYLNKKSQKIIHYDLKPGNVLFDEFGVAKVTDFGLSKIVEDNVGSQGMELTSQGAGTYWYLPPECFELNKTPMISSKVDVWSVGVLFYQMLFGKRPFGHDQSQERILREDTIIKAKKVEFPVTRPAISNEAKDLIRRCLTYNQEDRPDVLTMAQDPYLAYSKK
partner: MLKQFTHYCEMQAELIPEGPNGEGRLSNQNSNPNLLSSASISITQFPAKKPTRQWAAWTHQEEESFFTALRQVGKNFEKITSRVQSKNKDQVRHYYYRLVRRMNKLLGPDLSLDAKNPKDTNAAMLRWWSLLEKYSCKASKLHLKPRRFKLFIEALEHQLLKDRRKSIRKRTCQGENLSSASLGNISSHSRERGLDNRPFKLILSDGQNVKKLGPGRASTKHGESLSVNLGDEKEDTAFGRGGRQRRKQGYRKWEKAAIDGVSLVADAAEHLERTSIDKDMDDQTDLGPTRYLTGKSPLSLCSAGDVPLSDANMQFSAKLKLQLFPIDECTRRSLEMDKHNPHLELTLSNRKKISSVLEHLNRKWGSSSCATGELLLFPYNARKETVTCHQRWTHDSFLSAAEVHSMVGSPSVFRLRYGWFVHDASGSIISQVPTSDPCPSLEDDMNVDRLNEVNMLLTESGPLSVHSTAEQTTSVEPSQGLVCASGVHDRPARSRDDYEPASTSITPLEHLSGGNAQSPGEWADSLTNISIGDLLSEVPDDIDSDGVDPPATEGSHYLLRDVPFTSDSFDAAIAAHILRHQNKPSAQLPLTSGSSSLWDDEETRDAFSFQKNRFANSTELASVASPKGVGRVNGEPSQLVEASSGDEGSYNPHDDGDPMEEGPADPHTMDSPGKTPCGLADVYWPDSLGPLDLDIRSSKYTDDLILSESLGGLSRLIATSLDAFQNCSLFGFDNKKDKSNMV
B2: Serine/threonine-protein kinase TOUSLED (Arabidopsis thaliana (Mouse-ear cress)), Q39238 (parent)
chain: B1 chain
partner: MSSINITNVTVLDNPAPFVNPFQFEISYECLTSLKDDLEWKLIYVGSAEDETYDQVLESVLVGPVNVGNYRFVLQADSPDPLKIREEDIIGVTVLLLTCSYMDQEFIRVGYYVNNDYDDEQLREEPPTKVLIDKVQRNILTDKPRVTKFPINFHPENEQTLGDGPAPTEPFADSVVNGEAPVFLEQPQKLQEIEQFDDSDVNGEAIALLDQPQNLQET

Variants of: B1
Conditions: with tki1_arath TKI1, Q8LJT8

Variant | effect of a mutation on the interaction
K438E | disrupting interaction

Variants of: B2
Conditions: with asf1b_arath ASF1B

Variant | effect of a mutation on the interaction
K438E | disrupting interaction
